Drawing on patent publication US20210388074A1 (LUDWIG INSTITUTE FOR CANCER RESEARCH, published 2021), this text covers binding result and Kd for twelve molecules.

For experiment [1], the target named is T1, human recombinant TGF-b3 (Shenandoah Biotechnology, cat. #100-109) (human, UniProt P10600 301-412).
T1 construct: Bought recombinant protein, coated on ELISA plates; also called TGF-β3; hTGF-ß3
T1 sequence: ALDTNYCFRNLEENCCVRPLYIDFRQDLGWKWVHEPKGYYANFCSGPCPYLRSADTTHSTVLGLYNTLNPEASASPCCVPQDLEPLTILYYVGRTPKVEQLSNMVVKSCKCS
The experiment in a line: ELISA; scFv culture on plate-coated TGF-b3, anti-cmyc detection. How it is done:
(§1) To perform the ELISA a 96-well maxisorp Nunc-immunoplate (Thermo Scientific, cat. #2022-10) was coated with 50 μl/well of human recombinant TGF-b1 (Acrobiosystems, cat. #TG1-H4212), TGF-b2 (R&D Systems, cat. #302-B2-010) and human recombinant TGF-b3 (Shenandoah Biotechnology, cat. #100-109) at 500 ng/ml in PBS at 4° C. overnight. Wells were blocked by the direct addition of 230 μl of block solution (5% skimmed milk/0.05% Tween20 in PBS) without first washing the plate. Blocking was carried out for 45 min with gentle agitation. Concurrently, the bacterial cultures containing the expressed scFv and the rescued phage were blocked by the direct addition of 120 μl of block solution. The blocked maxisorp plate was washed 3× with PBST (PBS+0.1% Tween20) before applying 150 μl of blocked scFv or phage culture to the wells. Incubation was performed for 1 h at room temperature with gentle agitation before washing of the wells with 4×PBST.
(§2) For the scFv ELISA, 100 μl of primary mouse 9E10 anti-cmyc Ab diluted 1/1000 in PBS+1% BSA was added to wells, followed by a 1 h incubation at room temperature with gentle agitation. […] The ELISA was developed by the addition of 100 μl/well of TMB substrate (ThermoFischer Scientific, cat. #34021), stabilized with 50 μl/well of stop solution (2N sulfuric acid) and absorbance signals read at 450 nm and 620 nm.
Background: An ELISA detects its analyte on a solid surface through an enzyme-linked reagent.

For experiment [2], the target named is T1, human recombinant TGF-b3 (Shenandoah …). The experiment in a line: phage ELISA on plate-coated TGF-b3, anti-fd bacteriophage detection. How it is done:
as §1
For the phage ELISA, 100 μl of primary rabbit anti-fd bacteriophage Ab (Sigma, cat. #B7786) diluted 1/1000 in PBS+1% BSA was added to wells followed by a 1 h incubation at room temperature with gentle agitation. The plate was washed 4× with PBST before the addition of 100 μl of secondary mouse anti-rabbit IgG (Υ-chain specific) HRP conjugate (Sigma, cat. #A1949) diluted 1/15000 in PBS+1% BSA. […]

For experiment [3] the target is unchanged. Nature of the experiment: TGFβ specificity ELISA; HEK293-6E supernatant.
Experiment [4] concerns the target T2, TGFb3 (species not stated) (UniProt P10600 301-412).
T2 chain: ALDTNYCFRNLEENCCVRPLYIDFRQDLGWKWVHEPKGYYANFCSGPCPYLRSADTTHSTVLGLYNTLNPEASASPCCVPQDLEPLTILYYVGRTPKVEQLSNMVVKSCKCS
The experiment in a line: Biacore single-cycle kinetics. In general terms: SPR reads the build-up and loss of mass on a sensor chip optically.

Experiment [5] addresses T3, TGFb3 (species not stated) (Homo sapiens (Human), UniProt P10600 301-412).
T3 construct: also called TGFβ3; TGF-β3
T3 sequence: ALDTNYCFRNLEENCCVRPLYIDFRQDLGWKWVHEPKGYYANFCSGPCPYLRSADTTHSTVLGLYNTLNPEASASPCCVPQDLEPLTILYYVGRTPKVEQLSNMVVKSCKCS
Nature of the experiment: SPR (Biacore), single-cycle kinetics; TGFb3 immobilized directly, Fab as soluble analyte. How it is done:
TGFb3 immobilized directly; Fab as soluble analyte (0 2.5 nM). Single cycle kinetics were conducted as follows Contact: 360 s; Dissociation: 500 s; Flow rate: 30 μl/min.
Binding affinities of the Fabs were in the pM range.

Experiment [6] concerns the target T1, human recombinant TGF-b3 (Shenandoah …). The experiment in a line: competition ELISA on hTGF-ß3-coated plate; competitor biotinylated murine 1901. How it is done:
Nunc Maxisorb ELISA plates were coated overnight at 8° C. with 0.5 μg/ml hTGF-ß1 (Peter Sun, NIH) or hTGF-ß3 (Shenandoah Biotech) at 0.5 μg/ml in 40 mM glycine buffer pH 9. Plates were washed and blocked with 10% FCS for 1 h at 37° C. […] After incubation for 2h at 37° C. plates were washed, Avidine-HRP added and incubated for 1 h at 37° C. Plates washed again, TMB substrate was added and bound biotinylated antibody was quantitated by measuring color development in an ELISA reader at a wave length of 450 nm.
The potency of the humanized LCR1901 IgG4 antibody variants to compete with the parental murine antibody for binding to TGFb3 was assessed by ELISA.

Experiment [7] shares this target. Nature of the experiment: ELISA; scFv culture on plate-coated TGF-b3. How it is done:
as §1, §2

B1: LCR1901_scFv (murine 1901 VH and VL reformatted as soluble scFv) (scFv)
scFv: SFVMTQTPKFLLVSAGDRVTITCKASQSVINAVAWYQQKPGQSPKLLIYYASNRYTGVPDRFTGNGYGTDFTFTISTVQAEDLAVYFCQQDYSSPYTFGGGTKLEIKRTVAARQEGGSGEGGSGESNAAAQVLLQQSGPELVKPGASVKISCKASGYAFSSSWIHWVKQRPGKGLEWIGRIYPGDGDTNYTGKFKGKATLTADKSSSTAYMQLSSLTSEDSAVYFCARRMITTQAAMDYWGQGTSVTVSSASTKAS
notes: Expressed in E. coli from pCHV101 and tested as culture; also called LCR1901_soluble scFv; parental soluble scFv
Take B1: in experiment [1], the binding result is listed as “binds”.

B2: LCR1901_Phage (murine 1901 scFv fused to the pIII coat protein of filamentous bacteriophage) (scFv)
scFv: SFVMTQTPKFLLVSAGDRVTITCKASQSVINAVAWYQQKPGQSPKLLIYYASNRYTGVPDRFTGNGYGTDFTFTISTVQAEDLAVYFCQQDYSSPYTFGGGTKLEIKRTVAARQEGGSGEGGSGESNAAAQVLLQQSGPELVKPGASVKISCKASGYAFSSSWIHWVKQRPGKGLEWIGRIYPGDGDTNYTGKFKGKATLTADKSSSTAYMQLSSLTSEDSAVYFCARRMITTQAAMDYWGQGTSVTVSSASTKAS
notes: not shown: pIII coat protein of filamentous bacteriophage from the pCHV101 phagemid
For the molecule B2, the binding result in experiment [2] is “binds”.

B3: 1901_Chimeric (mouse 1901 variable domains fused to human IgG1 Fc) (antibody, V domains shown)
VH: QVLLQQSGPELVKPGASVKISCKASGYAFSSSWIHWVKQRPGKGLEWIGRIYPGDGDTNYTGKFKGKATLTADKSSSTAYMQLSSLTSEDSAVYFCARRMITTQAAMDYWGQGTSVTVSS
VL: SFVMTQTPKFLLVSAGDRVTITCKASQSVINAVAWYQQKPGQSPKLLIYYASNRYTGVPDRFTGNGYGTDFTFTISTVQAEDLAVYFCQQDYSSPYTFGGGTKLEIK
notes: Tested as HEK293-6E supernatant; also called murine chimeras
Take B3: the binding result in experiment [3] is listed as “binds”.

B4: 1901-1D Fab (LCR1901_VH_1G10m_03(K)-LCR1901_VK_GLv1_03(F) expressed as Fab) (Fab, V domains shown)
VH: QVQLVQSGAEVKKPGSSVKVSCKASGYTFSSSWIHWVKQRPGKGLEWIGRIYPGDGDTDYSEKFQGRVTITADKSTSTAYMELSSLRSEDTAVYYCARRMITTQAALDYWGQGTLVTVSS
VL: DIQMTQSPSSLSASVGDRVTITCKASQSVINAVAWYQQKPGQSPKLLIYYASNRYTGVPDRFSGSGYGTDFTFTISSLQAEDVAVYYCQQDYSSPYTFGGGTKVEIK
As for B4, the Kd in experiment [4] stood at 364 pM. In experiment [5], the binding result was “binds”.

B5: 1901-1A, LCR1901_VH_1G10m-LCR1901_VK_GLv1_05(H), human IgG4 (S228P) (antibody, V domains shown)
VH: QVQLVQSGAEVKKPGSSVKVSCKASGYTFSSSWIHWVRQAPGQGLEWIGRIYPGDGDTDYSEKFQGRVTITADKSTSTAYMELSSLRSEDTAVYYCARRMITTQAALDYWGQGTLVTVSS
VL: DIQMTQSPSSLSASVGDRVTITCKASQSVINAVAWYQQKPGKAPKLLIYYASNRYTGVPDRFSGSGYGTDFTFTISSLQAEDVAVYYCQQDYSSPYTFGGGTKVEIKR
notes: the latter are used; also called LCR1901-1A
Consider B5, for which the binding result in experiment [6] was “binds”.

B6: 1901-1A Fab (LCR1901_VH_1G10m-LCR1901_VK_GLv1_05(H) expressed as Fab) (Fab, V domains shown)
VH: QVQLVQSGAEVKKPGSSVKVSCKASGYTFSSSWIHWVRQAPGQGLEWIGRIYPGDGDTDYSEKFQGRVTITADKSTSTAYMELSSLRSEDTAVYYCARRMITTQAALDYWGQGTLVTVSS
VL: DIQMTQSPSSLSASVGDRVTITCKASQSVINAVAWYQQKPGKAPKLLIYYASNRYTGVPDRFSGSGYGTDFTFTISSLQAEDVAVYYCQQDYSSPYTFGGGTKVEIK
With B6, the binding result in experiment [5] is on record as “binds”.

B7: 1901-1B Fab (LCR1901_VH_1G10m_03(K)-LCR1901_VK_GLv1_05(H) expressed as Fab) (Fab, V domains shown)
VH: QVQLVQSGAEVKKPGSSVKVSCKASGYTFSSSWIHWVKQRPGKGLEWIGRIYPGDGDTDYSEKFQGRVTITADKSTSTAYMELSSLRSEDTAVYYCARRMITTQAALDYWGQGTLVTVSS
VL: DIQMTQSPSSLSASVGDRVTITCKASQSVINAVAWYQQKPGKAPKLLIYYASNRYTGVPDRFSGSGYGTDFTFTISSLQAEDVAVYYCQQDYSSPYTFGGGTKVEIK
B7: the Kd in experiment [4] is 285 pM.

B8: 1901_Glv1 (graft) human IgG1 (antibody, V domains shown)
VH: QVQLVQSGAEVKKPGSSVKVSCKASGYAFSSSWIHWVRQAPGQGLEWIGRIYPGDGDTNYTGKFKGRVTITADKSTSTAYMELSSLRSEDTAVYYCARRMITTQAAMDYWGQGTSVTVSS
VL: DIQMTQSPSSLSASVGDRVTITCKASQSVINAVAWYQQKPGKAPKLLIYYASNRYTGVPSRFSGSGSGTDFTLTISSLQPEDFATYYCQQDYSSPYTFGGGTKVEIK
notes: Tested as HEK293-6E supernatant; also called LCR1901_GLv1 mAb (IgG1)
Take B8: in experiment [3], the binding result was “binds”.

B9: 1901-1C Fab (LCR1901_VH_1G10m-LCR1901_VK_GLv1_03(F) expressed as Fab) (Fab, V domains shown)
VH: QVQLVQSGAEVKKPGSSVKVSCKASGYTFSSSWIHWVRQAPGQGLEWIGRIYPGDGDTDYSEKFQGRVTITADKSTSTAYMELSSLRSEDTAVYYCARRMITTQAALDYWGQGTLVTVSS
VL: DIQMTQSPSSLSASVGDRVTITCKASQSVINAVAWYQQKPGQSPKLLIYYASNRYTGVPDRFSGSGYGTDFTFTISSLQAEDVAVYYCQQDYSSPYTFGGGTKVEIK
Turning to B9, in experiment [4], the Kd was found to be 300 pM. Further, in experiment [5], the binding result was “binds”.

B10: 1901-1D, LCR1901_VH_1G10m_03(K)-LCR1901_VK_GLv1_03(F), human IgG4 (S228P) (antibody, V domains shown)
VH: QVQLVQSGAEVKKPGSSVKVSCKASGYTFSSSWIHWVKQRPGKGLEWIGRIYPGDGDTDYSEKFQGRVTITADKSTSTAYMELSSLRSEDTAVYYCARRMITTQAALDYWGQGTLVTVSS
VL: DIQMTQSPSSLSASVGDRVTITCKASQSVINAVAWYQQKPGQSPKLLIYYASNRYTGVPDRFSGSGYGTDFTFTISSLQAEDVAVYYCQQDYSSPYTFGGGTKVEIKR
notes: the latter are used; also called LCR1901-1D
With B10, the binding result in experiment [6] was “binds”.

B11: 1901-1C, LCR1901_VH_1G10m-LCR1901_VK_GLv1_03(F), human IgG4 (S228P) (antibody, V domains shown)
VH: QVQLVQSGAEVKKPGSSVKVSCKASGYTFSSSWIHWVRQAPGQGLEWIGRIYPGDGDTDYSEKFQGRVTITADKSTSTAYMELSSLRSEDTAVYYCARRMITTQAALDYWGQGTLVTVSS
VL: DIQMTQSPSSLSASVGDRVTITCKASQSVINAVAWYQQKPGQSPKLLIYYASNRYTGVPDRFSGSGYGTDFTFTISSLQAEDVAVYYCQQDYSSPYTFGGGTKVEIKR
notes: also called LCR1901-1C
Take B11: in experiment [6], the binding result is reported as “binds”.

B12: LCR1901_GLv1_scFv (murine 1901 CDRs grafted onto IGKV1-39*01/IGHV1-69*08, scFv) (scFv)
scFv: DIQMTQSPSSLSASVGDRVTITCKASQSVINAVAWYQQKPGKAPKLLIYYASNRYTGVPSRFSGSGSGTDFTLTISSLQPEDFATYYCQQDYSSPYTFGGGTKLEIKRTVAARQEGGSGEGGSGESNAAAQVQLVQSGAEVKKPGSSVKVSCKASGYAFSSSWIHWVRQAPGQGLEWIGRIYPGDGDTNYTGKFKGRVTITADKSTSTAYMELSSLRSEDTAVYYCARRMITTQAAMDYWGQGTSVTVSSASTKAS
notes: Expressed in E. coli from pCHV101
For the molecule B12, in experiment [7], the binding result is on record as “binds”.

By Kd is commonly meant the constant that tells how readily two partners part at equilibrium.
